Measurements reported in the supplement of paper PMC10567573.

B1: PCMTD2 (parent)
chain: FFIRTSDSFDKFDFCEPSFVTGNC

Variants of: B1
Test: protein stability index of a GFP-peptide fusion (GPS, HEK-293T) (PSI 1-6); higher = more stable
Details: c terminus: a fixed tail appended
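Note: lentivirally expressed fusions sorted by FACS into six bins by GFP to DsRed ratio, PSI derived from sequencing read proportions per bin multiplied by bin number.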

Protein stability index of substitutions, site by site:
G22: A 2 | Q 2.74 | I 2.8 | R 1.87 | F 1.68 | S 2.07 | V 4.43 | H 3.63 | N 2.16 | T 2.24 | M 3.08 | L 2.03 | W 3.23 | C 2.71 | K 2.1 | E 2.16 | P 3.09 | Y 1.85
V20: N 2.73 | E 2.26 | S 2.47 | Q 1.79 | H 2.32 | Y 1.91 | W 2.15 | I 2.54 | T 2.58 | R 2.53 | A 2.2 | L 3.22 | P 1.62 | C 2.37 | F 3 | D 1.76 | K 1.86 | M 2.5 | G 1.61
N23: W 2.05 | D 2.84 | A 2.62 | K 1.75 | T 2.7 | Q 3.51 | S 2.54 | M 1.83 | P 1.39 | L 3.54 | G 4.12 | H 2.16 | I 2.13 | R 2.88 | C 3.73 | E 2.27 | V 2.89 | Y 1.61
F19: Q 1.91 | T 2.04 | W 3.83 | S 1.66 | R 2.21 | Y 1.67 | D 2.11 | G 2.16 | V 2.06 | N 1.64 | L 2.26 | K 1.95 | A 1.69 | H 1.25 | E 1.67 | P 1.92 | M 1.68 | C 1.49 | I 3.34
P17: F 2.3 | Q 2.51 | E 2.18 | Y 3.1 | C 2.42 | A 2.74 | S 2.03 | N 2.05 | V 4.75 | I 2.35 | L 3.54 | H 3.52 | M 2.69 | G 2.03 | T 3.13 | W 4.64 | D 1.47 | K 2
E16: P 1.87 | Y 3.4 | R 2.11 | Q 2.02 | I 2.85 | S 2.04 | W 3.77 | A 2.25 | G 2.2 | F 2.04 | N 2.95 | H 3.4 | V 2.9 | M 3.1 | C 2.5 | D 2.87 | K 3.41
C24: K 1.92 | P 1.74 | Y 2.53 | M 3.61 | Q 2.85 | R 2.27 | L 2.66 | N 1.47 | T 2.24 | H 2.43 | D 1.64 | S 2.78 | G 2.09 | A 2.73 | F 3.29 | E 2.04
F14: L 1.91 | V 2.05 | I 2.31 | S 1.84 | M 2.1 | R 2.37 | W 2.71 | Y 2.92 | K 1.99 | Q 1.89 | T 2.5 | P 2.55 | N 2.27
C15: V 2.05 | D 2.14 | N 2.98 | E 2.06 | M 1.98 | I 3.14 | H 2.62 | P 3.43 | F 3.17 | Q 3.22 | L 3.34 | W 2.31 | G 3.49 | A 2.24 | K 2.43 | T 2.3 | R 2.15 | S 2.04 | Y 3.03
T21: K 2.3 | G 3.28 | Q 2.22 | M 3.19 | I 2.9 | H 1.47 | L 3.84 | F 3.34 | V 3.86 | P 3.61 | Y 2.49 | S 2.18 | A 2.61 | N 2.27 | W 2.76 | D 1.71 | E 2.4
S18: R 2.39 | A 1.76 | C 3.71 | G 2.81 | T 2.54 | N 2.91 | Y 2.11 | K 3.26 | H 3.19 | L 4.02 | I 2.48 | E 2.4 | M 3.36 | F 2.02 | V 2.45 | W 3.1 | P 2.57 | D 2.42
